Blank lines part the entries; values can stand above or below the binder they belong to.
B5: HA-metap2 (other, UniProt P50579 1-478, looked up, not shown: small tags and cut ends)
chain: MAGVEEVAASGSHLNGDLDPDDREEGAASTAEEAAKKKRRKKKKSKGPSAAGEQEPDKESGASVDEVARQLERSALEDKERDEDDEDGDGDGDGATGKKKKKKKKKRGPKVQTDPPSVPICDLYPNGVFPKGQECEYPPTQDGRTAAWRTTSEEKKALDQASEEIWNDFREAAEAHRQVRKYVMSWIKPGMTMIEICEKLEDCSRKLIKENGLNAGLAFPTGCSLNNCAAHYTPNAGDTTVLQYDDICKIDFGTHISGRIIDCAFTVTFNPKYDTLLKAVKDATNTGIKCAGIDVRLCDVGEAIQEVMESYEVEIDGKTYQVKPIRNLNGHSIGQYRIHAGKTVPIVKGGEATRMEEGEVYAIETFGSTGKGVVHDDMECSHYMKNFDVGHVPIRLPRTKHLLNVINENFGTLAFCRRWLDRLGESKYLMALKNLCDLGIVDPYPPLCDIKGSYTAQFEHTILLRPTCKEVVSRGDDY
notes: Negative control of the co-immunoprecipitations; also called metap2 control protein

What was measured:
[1] = biological target: B5; assay: co-immunoprecipitation, anti-HA IP from transfected HEK-293T cells
[2] = biological target: T1, GSK3β (human, UniProt P49841); assay: control immunoprecipitation with an anti-GSK3β antibody from HEK-293T cells starved of or restimulated with amino acids
T1 construct: endogenous, untagged; also called endogenous GSK3β, control immunoprecipitation
Experimental: FIG. 9A, FIG. 9B, FIG. 9C, FIG. 9D and FIG. 9E depict arginine regulates the interaction of GATOR2 with CASTOR1-containing complexes in cells and in vitro. […] HEK-293T cells cotransfected with the indicated cDNAs and stably expressing the indicated shRNAs were deprived of amino acids in the cell media for 50 min. Anti-HA immunoprecipitates were analyzed by immunoblotting for the indicated proteins. […] HEK-293T cells were starved or restimulated with amino acids, and immunoprecipitates were prepared from these cells using an antibody directed against GSK3β or WDR24. Immunoprecipitates were analyzed by immunoblotting for the indicated proteins. […] Stable expression lines of HEK-293T cells stably expressing the denoted proteins were cotransfected with the indicated cDNAs and treated as in FIG. 3A. Anti-HA immunoprecipitates were analyzed by immunoblotting for the levels of indicated proteins. FIG. 9D depicts deprivation of arginine, but not leucine, is sufficient to promote the association of endogenous GATOR2 with recombinant CASTOR1-CASTOR2 heterodimers. HEK-293T cells cotransfected with the indicated cDNAs were treated and analyzed as in FIG. 3C. […] Anti-HA immunoprecipitates were prepared and analyzed as in FIG. 3E.

[3] = biological target: B5; assay: co-immunoprecipitation, anti-HA IP from transfected HEK-293T cells, immunoblot for endogenous CASTOR1
[4] = biological target: T2, endogenous GATOR2 complex (Seh1L, WDR59, WDR24, Sec13 and Mios) (human, UniProt Q9NXC5 1-875; Q96S15 1-790; Q6PJI9 1-974; P55735 2-322; Q96EE3 1-360, limits assumed); assay: co-immunoprecipitation, anti-FLAG IP of GATOR2 from a HEK-293T line with endogenously FLAG-tagged WDR59, immunoblot for endogenous CASTOR1
T2 construct: Five-subunit complex; In most blots its presence is read from the mios band; also called detected by mios
Experimental: (§1) FIG. 3A, FIG. 3B, FIG. 3C, FIG. 3D, FIG. 3E and FIG. 3F depict arginine regulates the interaction of GATOR2 with CASTOR1-homodimers and CASTOR1-CASTOR2 heterodimers in cells and in vitro. […] HEK-293T cells cotransfected with the indicated cDNAs were deprived of amino acids for 50 min or starved and restimulated with amino acids for 10 min. Anti-HA immunoprecipitates and cell lysates were analyzed by immunoblotting for levels of the indicated proteins. […] A HEK-293T cell line expressing endogenously FLAG-tagged WDR59 was treated as in (3A) and anti-FLAG immunoprecipitates were analyzed by immunoblotting for the indicated proteins. […] Cells were deprived of leucine, arginine, or all amino acids for 50 min, and restimulated for 10 min with the respective amino acids where indicated. Anti-HA immunoprecipitates were prepared and analyzed as in (3A). […] Anti-HA immunoprecipitates were prepared from HEK-293T cells expressing the indicated cDNAs and deprived of amino acids for 50 min. Indicated amino acids were added directly to the immunoprecipitates, which after re-washing, were analyzed as in (3A). […] The experiment was performed and analyzed as in (3D), except using the indicated concentrations of arginine. […] Anti-HA immunoprecipitates were prepared and analyzed as in (3A).

[5] = biological target: T2, endogenous GATOR2 complex (Seh1L, …); assay: co-immunoprecipitation, anti-HA IP from HEK-293T cells deprived 50 min of all amino acids, leucine or arginine, or restimulated 10 min; immunoblot for endogenous mios
Experimental: as §1

[6] = biological target: complete GATOR2 complex, recombinant (WDR24-FLAG, WDR59, mios, sec13, seh1L co-expressed) (UniProt Q96S15 1-790; Q6PJI9 1-974; Q9NXC5 1-875; P55735 1-322; Q96EE3 1-360, limits assumed); assay: co-immunoprecipitation, anti-FLAG IP (bait WDR24-FLAG) from co-transfected HEK-293T cells, immunoblot for HA-tagged CASTOR1
Excerpt: FIG. 7A, FIG. 7B, FIG. 7C, FIG. 7D, FIG. 7E and FIG. 7F depicts CASTOR1 and CASTOR2 homologs are present in vertebrates and invertebrates, and the CASTORs and Sestrins bind to distinct sites on GATOR2. […] Sequence alignments are colored with respect to sequence identity as in FIG. 1C. The first and second ACT domains are annotated above the alignment with blue and orange bars, respectively. […] The sequence alignment is annotated as in (7B). FIG. 7E depicts the GATOR2 components WDR24, mios, and seh1L form a minimal complex that is sufficient to co-immunoprecipitate CASTOR1. HEK-293T cells were cotransfected with the indicated cDNAs, and anti-FLAG immunoprecipitates were analyzed as in FIG. 1D.
Where indicated, for transient cotransfection experiments, 2 million HEK-293T cells were plated in 10 cm dishes and transfected 24 hrs later using the polyethylenimine method (Boussif et al., 1995) with the indicated pRK5-based expression vectors: 300 ng HA-metap2, 40 ng CASTOR1-HA, 80 ng CASTOR1-FLAG, 40 ng CASTOR2-HA, 80 ng CASTOR2-FLAG; 100 ng WDR24-FLAG, 100 ng WDR59, 100 ng mios, 150 ng sec13, 150 ng seh1L, 10 ng or 40 ng or 100 ng or 600 ng of myc-Sestrin2 or myc-CASTOR2; 2 ng FLAG-56K1, 15 ng or 60 ng HA-CASTOR2, 75 ng and 175 ng of CASTOR1-HA. The total amount of plasmid DNA in each transfection was normalized to 5 μg with empty pRK5. […]

[7] = biological target: T2, endogenous GATOR2 complex (Seh1L, …); assay: co-immunoprecipitation, anti-HA IP from transfected HEK-293T cells starved of all amino acids 50 min, immunoblot for endogenous mios
Experimental: FIG. 8A depicts validation of the anti-serum used to detect endogenous CASTOR2. Lysates were prepared from HEK-293T lines stably expressing the indicated shRNAs and analyzed by immunoblotting for levels of indicated proteins. FIG. 8B depicts validation of the anti-serum used to detect endogenous CASTOR1. Lysates were prepared from HEK-293T stably lines expressing the indicated shRNAs and analyzed as in (8C). The arrow denotes the band corresponding to endogenous CASTOR1. […] HEK-293T cells were cotransfected with the indicated cDNAs in expression vectors, starved of all amino acids for 50 minutes, and anti-HA immunoprecipitates were analyzed as in FIG. 1D. […] HEK-293T cells were cotransfected with the indicated cDNAs in expression vectors, starved of all amino acids for 50 minutes, and anti-HA immunoprecipitates were analyzed as in FIG. 1D.

T1 sequence (P49841 whole entry): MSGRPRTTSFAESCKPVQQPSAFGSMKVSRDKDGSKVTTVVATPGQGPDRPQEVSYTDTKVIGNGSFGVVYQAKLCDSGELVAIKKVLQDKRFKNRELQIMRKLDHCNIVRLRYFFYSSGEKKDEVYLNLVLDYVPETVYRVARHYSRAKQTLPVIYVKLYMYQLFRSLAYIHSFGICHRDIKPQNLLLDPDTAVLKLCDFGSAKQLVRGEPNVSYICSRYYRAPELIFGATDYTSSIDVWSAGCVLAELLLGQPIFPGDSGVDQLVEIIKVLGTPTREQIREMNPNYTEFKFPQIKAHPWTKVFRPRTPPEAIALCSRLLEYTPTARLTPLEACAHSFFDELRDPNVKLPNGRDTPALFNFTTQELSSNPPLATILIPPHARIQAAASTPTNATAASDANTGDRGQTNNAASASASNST

B2: endogenous CASTOR1 (other, human, UniProt Q8WTX7 1-329, looked up)
chain: MELHILEHRVRVLSVARPGLWLYTHPLIKLLFLPRRSRCKFFSLTETPEDYTLMVDEEGFKELPPSEFLQVAEATWLVLNVSSHSGAAVQAAGVTKIARSVIAPLAEHHVSVLMLSTYQTDFILVREQDLSVVIHTLAQEFDIYREVGGEPVPVTRDDSSNGFPRTQHGPSPTVHPIQSPQNRFCVLTLDPETLPAIATTLIDVLFYSHSTPKEAASSSPEPSSITFFAFSLIEGYISIVMDAETQKKFPSDLLLTSSSGELWRMVRIGGQPLGFDECGIVAQIAGPLAAADISAYYISTFNFDHALVPEDGIGSVIEVLQRRQEGLAS
notes: Detected with an anti-CASTOR1 antiserum; also called GATSL3
binding result [3]: no binding
binding result [4]: binds

B3: CASTOR1 homodimer (other, human, not shown: small tags and cut ends)
chain 1: MELHILEHRVRVLSVARPGLWLYTHPLIKLLFLPRRSRCKFFSLTETPEDYTLMVDEEGFKELPPSEFLQVAEATWLVLNVSSHSGAAVQAAGVTKIARSVIAPLAEHHVSVLMLSTYQTDFILVREQDLSVVIHTLAQEFDIYREVGGEPVPVTRDDSSNGFPRTQHGPSPTVHPIQSPQNRFCVLTLDPETLPAIATTLIDVLFYSHSTPKEAASSSPEPSSITFFAFSLIEGYISIVMDAETQKKFPSDLLLTSSSGELWRMVRIGGQPLGFDECGIVAQIAGPLAAADISAYYISTFNFDHALVPEDGIGSVIEVLQRRQEGLAS
chain 2: MELHILEHRVRVLSVARPGLWLYTHPLIKLLFLPRRSRCKFFSLTETPEDYTLMVDEEGFKELPPSEFLQVAEATWLVLNVSSHSGAAVQAAGVTKIARSVIAPLAEHHVSVLMLSTYQTDFILVREQDLSVVIHTLAQEFDIYREVGGEPVPVTRDDSSNGFPRTQHGPSPTVHPIQSPQNRFCVLTLDPETLPAIATTLIDVLFYSHSTPKEAASSSPEPSSITFFAFSLIEGYISIVMDAETQKKFPSDLLLTSSSGELWRMVRIGGQPLGFDECGIVAQIAGPLAAADISAYYISTFNFDHALVPEDGIGSVIEVLQRRQEGLAS
notes: also called CASTOR1-HA with CASTOR1-FLAG; CASTOR1-containing dimers
binding result [5]: binds

Binder: B5
binding result [7]: no binding

The next lines start with the values.

binding result [1]: no binding
binding result [2]: no binding
B1: endogenous CASTOR2 (other, human, UniProt A6NHX0 1-329, looked up)
chain: MELHILEHRLQVASVAKESIPLFTYGLIKLAFLSSKTRCKFFSLTETPEDYTIIVDEEGFLELPSSEHLSVADATWLALNVVSGGGSFSSSQPIGVTKIAKSVIAPLADQNISVFMLSTYQTDFILVRERDLPFVTHTLSSEFTILRVVNGETVAAENLGITNGFVKPKLVQRPVIHPLSSPSNRFCVTSLDPDTLPAVATLLMDVMFYSNGVKDPMATGDDCGHIRFFSFSLIEGYISLVMDVQTQQRFPSNLLFTSASGELWKMVRIGGQPLGFDECGIVAQISEPLAAADIPAYYISTFKFDHALVPEENINGVISALKVSQAEKH
notes: Detected with an anti-CASTOR2 antiserum; also called GATSL2

binding result [6]: binds
B4: recombinant CASTOR1 (Cellular Arginine Sensor for mTORC1; protein encoded by the GATS protein-like 3 gene) (other, human, UniProt Q8WTX7 1-329, looked up, not shown: small tags and cut ends)
chain: MELHILEHRVRVLSVARPGLWLYTHPLIKLLFLPRRSRCKFFSLTETPEDYTLMVDEEGFKELPPSEFLQVAEATWLVLNVSSHSGAAVQAAGVTKIARSVIAPLAEHHVSVLMLSTYQTDFILVREQDLSVVIHTLAQEFDIYREVGGEPVPVTRDDSSNGFPRTQHGPSPTVHPIQSPQNRFCVLTLDPETLPAIATTLIDVLFYSHSTPKEAASSSPEPSSITFFAFSLIEGYISIVMDAETQKKFPSDLLLTSSSGELWRMVRIGGQPLGFDECGIVAQIAGPLAAADISAYYISTFNFDHALVPEDGIGSVIEVLQRRQEGLAS
notes: Expressed from pRK5 vectors in HEK-293T cells; which tag was used depends on the experiment; also called GATSL3; CASTOR1-HA
